Results published in the supplement of paper PMC12636428.

Test system: Saccharomyces cerevisiae
Assay: transcriptional activation domain activity (GFP:mCherry ratio, weighted mean of sorted bins, harmonized to initial dataset scale) (arbitrary fluorescence ratio units); higher = stronger transcriptional activation
Conditions: beta-estradiol 1 µM; induction time 4 h
Procedure, shortened: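 Sorting into 8 bins by GFP:mCherry ratio followed a 4-hour hold at 30 °C after cultures were diluted 1:5 into SC with 1 uM beta-estradiol. The yeast diploids carried a GFP reporter and had barcoded protein tiles, fused to an estradiol-inducible synthetic transcription factor, integrated at URA3. Barcodes were then sequenced, and tiles with under 50 reads were removed. Activation activity is the read-weighted mean of bin median fluorescence, averaged across barcodes and linearly mapped onto the initial dataset scale.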

| Sequence | transcriptional activation domain activity |
| --- | --- |
| MPPNHPIRLFPLLVQILLLLSASSLLLDTYDYINLGINSSFSYYYFLHLLTFL | 44200 |
| MSSEKSSRASKTPTPTPAPPGDHRKRRRNRTTQSCLNCHASKRMCDRKRPACQ | 52300 |
| IRTLRRSAREVLTVYWVLHGILPFPSIHSLDPYILSRRWSLCLNCLFLYALYF | 49700 |
| KLKEKNKKRKRGEEVSDDEEEGPKDDEPKEKKAKKEEEHGVWVGNLAFATSQD | 36700 |
| LLFLPYSCASFFFSLFSLFYFFLFYFFLLFSHIRIFISLSIHFSSSCFSTFLL | 58300 |
| MFACPYLGLLCLSVTSMPYPFSQLFQPFISPRFCPECAPFSFFLHSFLGFHLT | 52200 |
| MCFVVFIRWELLMISHCAVVYLLLLFLLFIVHYFLIEGFLFLYVLVRAFAFVL | 41900 |
| FRFQQCMTRAMTLIKMYFVGSLRALSLDVFKRLSEKDVSPTAQMHLLYTRFKT | 56200 |
| SLFFSVWALSQTWCVGHRRCSPMHLGTYYDAFIFLGISGMWKWSLLLIVIYRF | 34000 |
| CPYYPMICPSFLPLLLVLLFSLYLFLSSPLDFFLPLDFLIHTHNCTFLRTKGQ | 40000 |
| LVYLARSLFFSLLFKRLYILYFLEVCIWHIFGFFFYLITLCANLVMPLLLCSV | 57600 |
| VIEKLFWRVSALYICTHQFLLWALFMIRDYLLSKYPGSQLVLRCHMVLKIMLF | 46400 |
| MFPYSWFRLLFRLLFLWPFLLFQLLFPWPTTLLILWPFRLLILWPIRLLILWP | 73200 |
| RGREDNEDGGRNKRRGGGRFEGRRGRGDRDGNRRRDTRDSRREDKSTANGDAS | < 6570 |
| SVEVEMEDAPKPKRRGRPPGSGKKKAPAGEDAAAAAPEKKKRTPAKKASAGSA | 42700 |
| NVLDASSVIARRAVETGGRNVPRGAAGGGAPRNRARGFELEIGNATLLGRRHN | 29200 |
| IFFCHGRFLTSRSFWAFLLSLFLLIAPSILFLVFTCPWLWFHMSPSIPIVFSY | 51200 |
| WLPNWLVPVMTAFSWMTWIAPKHRDLNILTGFNNGMGLLNFWPTWDWNVLLFT | 54200 |
| GYIGLSSGYFWSGLLYNVSITISLYCLAMFWVCLHDDLVPFRPVPKFLVIKLV | 53000 |
| TGQGGLEEVKGKLDETKASFAYVRITYANDKESQREKFILIIFIGAEVKVMRK | 37500 |
| HHLVITHVILFCLITFRCFTVIVRSIYERWHIKSAVIVLDLGSSWGLAANVPW | 43600 |

| Sequence | transcriptional activation domain activity |
| --- | --- |
| PMGGDPLLDQAFYGADDFFFPPEGCDNNMLYPQTATSWNVLPPQAMQPAPTYV | 63900 |
| KSVLCDLVFTMFADLRDPSVSRRFATVDDLELWFSTTLIKALRHLVALFTEYY | 50400 |
| GHSTSTFNTYDEVVSRPFISLDMLHLNRGANANTHPSHNAKLESECDSSSHSD | 38700 |
| VQFVLDLIVMVGVAGYNTVAQLYFPQLPHHKCSNSAATGSFGLFLICCYLVLF | 53700 |
| MHITCPRLWGHCSWCVVLPFIFHTFLYCIPTFCCFLVHISAILFIGFSFLGSL | 55600 |
| SLTHGMPQDLRRAVRNGVRLASAEDQERYFTFILHEAVRLYGVLMMRIVYRLF | 55300 |
| SSLTSIESMGSVMDESGEEEEEDVIYEVKRARTHSMEVQQARLVSWEGAGMKL | 42300 |
| IGFYFLEYGQNCFRDDSDGPCWAGRYMVNVWNDLAVLRRLICYAAVQLARQHR | 40900 |
| AVPCVVIVRNSLLIIILLPLELPLVMYVGSSNDCRGILLFYLFWFWSLRAIAV | 68600 |
| LQCLLLSVLSPIGLVLLYSHLIGTDLIVIVSQLMFDYQVVQSWFIIFVCLVYW | 57400 |
| MPIGPIIMLYPMRKHHSILPCKIQRLLEYLWSFLLIQKDWYRYEQTNKYSIMA | 40100 |
| LFLFLCLFSPPINNPPFSSLIGEFLPLILSSWFYSFLISVWWNRWEKAFSWWL | 33800 |
| MANVRFFVGLQRLFPFLAFHHLLMLCHIIVIILLSILLAGCSSYSSMINVYIL | 70400 |
| MAPWDDAPAPFAADGDADDVTGSELAERFNKESGKVNAQLSAFPSALLCGRDK | 61900 |
| MGCVRHEKVIDITLKLFYKKTGGRYLKSEYNLFAVLVYLCLYRLPTDLPFATL | 53200 |
| MLKLCFFCAFLFLFLIIYYIYIFCFFFPFSLPSFSFFSFIPALIFFFFVVVEP | 48200 |
| LQQTKRQHSAPSQISANENNIYNLGTLEEFVSSGDLTDLYHTLWNDNTSYPFL | 128000 |
| LILEPPPAGGADGGPPTRSVPSSALRVGDLVLLEKNQRVPADCVLLRTSDAAG | 58800 |
| CMLRFVIWLCSKWVPYRSGVWEEFKFLLDHPRRCFTLLFPSGANWWLFWVLIL | 60600 |
| RSPRRQTQSSSTTPPARKTPTQTTKTHRTTSPTTRSSCRRASGRQTAPTHSSC | 43100 |
| MFFIFFFWFVFFPLTIFLLSSSIFGFLFSSSFLFYYYYFFLWGGRPFIFPFYS | 33300 |

| Sequence | transcriptional activation domain activity |
| --- | --- |
| RRRGGRGAGEGGEGEQEKGEGEQEKGEGEQERGGKGSRRRGGRGAGEGGEGEQ | 13900 |
| DNPSFLPLDIEQSSYDLSEDAMSYPIISTQSNRDCTQYDNTKISQILQSQLNP | 63900 |
| ASVVQWLGFHPSKVEVRVRFTAVANKRSSRTSLLLLVVWSWRRQRWMLRWSSG | 49300 |
| LLGMFAQLAFADYVMTPSQARLALFVFERLLKLLRAAPYPCVRVAILQLLMWL | 45500 |
| MNRIKSARGRDDGSDGEVRILVVSGPRVREVEWSGVQPAWMAVEVVVVMECPR | 36800 |
| MYECACFPFPFFLSFFFFLSSFSYGCPFCFVGYRFPLLPLLLSVFLFLGLCLM | 33800 |
| AGRGGERRRRGLRRGRGRGAGAAARGRDGVRDDGERVAARVRVRVCARVCVCV | 42600 |
| MTVEPSISLLFIDYLLFLIPFLSLFILFSLVLLLSYISPCNFFFFAISSQLPW | 39200 |
| MHYRYIAGFFFVHTFSCGQGLKDSNLILQCVPLYPQLHPFFLIFLHFFVFLSL | 70600 |
| LGSIWKPLRNDLLFGTCFFLTRILYHNIMIFTFYYHLDFMFPVYTLLFILPLH | 61100 |
| AAAAAAAAETAADEKPAEEAGEPPAAEPEAAEPAKEEAAPAEEAAAAEAVPAP | 54300 |
| ETEGAEETSDAEGNESAGKQKKRARKSSHASSRSRTGAQNKKSTVEQKSTFRG | 51600 |
| FSLGLRTPLDHLLLAFFVLCGLTRLARFNVTVAMLPKDATGKSQYFEGTPIPT | 73300 |
| MYILDKIKGEKGKQEGGEREAERGRGGAGRGEQEQEGGAGAGRGSRSKKGEQG | 30700 |
| EVMKIHPVQKQTRAGQRTRFKAYVVVGDSNGHVGLGVKCSKEVATAIRSAIIL | 38700 |
| GSYTSAARGGKAVQEAIRAMIERKGLELRQKQRKLRQDVVIVMHHATALPGTS | 56300 |
| AAEPAPEPVVEKAPAPKKRAGRQPKAETVVEDAPAPKKRGRGARKSEPAAVAE | 21000 |
| HSSTAFSGYIDDPFNLNEILPLPASDFKLNTVTNLNEIDFTNIFTKSPHPHSG | 136000 |
| TVMVFGSDEKRVKAVGDMLKANLNVKGGGKGTRWSGKRTGVWSDSREGAAVTG | 47800 |
| TFVERVYTCLNYRIYKIKILGGTCALLIFVWYFPGFVLRNVLVGMLGHVVLSI | 65400 |
| HEQKICAKYGSDVIFADNIDGGDSDEDERSTSCTCGKLRAIVARVMVAIGGDL | 48400 |

| Sequence | transcriptional activation domain activity |
| --- | --- |
| LALLTPGPSHVDPEYGTFQSLLFFFGLCTFLTTLTGIASSYIFWLYCSVLLLA | 52100 |
| SGTEDEDAAEDKSAAEDESGTEDESGTKDESGTEDEKLVRDIEEVVIVVEVVM | 32900 |
| GDEIVVVIQRARPVSAAAASSVTAVKVRRGDVRRAVIVRTRKAVRRPDGRYIR | 70400 |
| FSSLEDSLPSSISPPIQTTSTINFNWCFKEEKNNDLKCKWKECPESCSSLFDL | 69800 |
| YVASQLIEIFLPEALFSVVYLSNAGKCLSREEFLVQFTFLVRLFKHEFVYPWN | 30700 |
| RLSSSSKSKRSLRHPQRALCSSRAWEEDGGGNPNGGRGFVVRIRRFGRARLHS | 62500 |
| SDDVNSTMEDDDTPIEKHWLNIDQPLGSEKETTTLSILWMLLLLQLSHICTDP | 76600 |
| MVLHMRGHVQNKIKITLFTAFFFFVQIRSLGWILFLGFSFSALFFPIFFIFFI | 55000 |
| DFWFFLFVYYGFYNLVGLLWITKVFNMYGLNWWPVRLGFPATFTLFNCLSLAC | 65500 |
| EGSGEEAGGEGSGGEEDEEDEAGGGGDDADGRRGEDDGADEGTAGARAAAKAA | 34900 |
| NCSFIFLMLNCILAAFCFYNLSSIMNGLVYFDQFSLIPPLHLGLVTLGMCVLL | 46400 |
| KSKKRRRDDGSSDTADSDGNRGRSTGKKRQRSRRGSDDNDSEADARKRSRKRR | 23600 |
| STGGARKGSAAPSKTSSSNISGRDKEKSRSKEKLGSQSALAAGSTPAPKAAAA | 47900 |
| MGLLGGRRAADYYLFLFFLFFFYLSLFSPRFSSFLHFPSYIELVGFFFFLLRL | 36700 |
| EAAPKEDAAPEPAPEKESKPEKAPEPKAEASKPAAPPASEKKDLKTAPKEETK | 28500 |
| MGLPYFWFYKHTCFSVNYVSSLFVLFFFYFLVGVVGYVTMGLVIFFLFFFLFF | 70300 |
| MHIVVTLCYFMTYLKPRRKDIYQRVQRWLPKIWTKFWQEIKRNDSFSYVFVDK | 49500 |
| FIQLVHLWRLILNYGPTGPFNIRMPSHLTWVVIKQHIQQYFFRCLCLLNKDGA | 49100 |
| IFAFGYWLEESGKLLRLDLFTRFYAWGRIVLPRVGDAMIFYWENDTFGIRRGF | 69000 |
| GFSVDPIVSLLYRAFTMMDVTFLRTVCFDIFSRYSTAELALVNQAFTAKHKKK | 40700 |
